Measurements from patent US20210024639A1 (AGOMAB THERAPEUTICS, published 2021).

Columns and labels:
[1] = biological target: T1, native human MET on living human cells (human, UniProt P08581 25-1390); test: cell-based or functional assay
[2] = biological target: T2, native mouse MET on living mouse cells (mouse, UniProt P16056 25-1379); test: cell-based or functional assay
[3] = biological target: T2, native mouse MET on living mouse cells; test: flow cytometry, MLP29 cells
Method in brief: (§1)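 PE fluorescence read-out: living cells stained with chimeric anti-MET antibodies, then PE-conjugated anti-human IgG1 secondary, analysed by flow cytometry. Values expressed as maximal binding (EMAX).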

[4] = biological target: T3, mouse MET-Fc chimeric protein (R&D Systems) (mouse, UniProt P16056 25-929, limits assumed); test: competition ELISA, mMET-Fc in solid phase, competitor 0.3 nM biotinylated mHGF
T3 construct: bought (R&D Systems); also called mMET; not shown: Fc
Method in brief: (§2)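 Recombinant HGF was biotinylated at its N-terminus with NHS-LC-biotin. Immobilized MET-Fc was exposed to the labelled ligand in the presence of increasing antibody concentrations (0-120 nM). Competition was expressed as IC₅₀, the concentration giving 50% competition, and IMAX, the maximum % competition at saturation.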

[5] = biological target: human MET ECD mutant I (mutations 6, 7, 8) (human) (UniProt P08581); test: ELISA, MET ECD mutant in solid phase, mAb 0-50 nM
[6] = biological target: human MET ECD mutant J (mutations 6, 7) (human) (UniProt P08581); test: ELISA, MET ECD mutant in solid phase, mAb 0-50 nM
[7] = biological target: T4, human MET-Fc chimeric protein (R&D Systems) (human, UniProt P08581 25-932); test: competition ELISA, hMET-Fc in solid phase, competitor 0.3 nM biotinylated hHGF
T4 construct: extracellular domain; bought (R&D Systems); also called hMET; not shown: Fc portion of human IgG1
Method in brief: as §2

[8] = biological target: T1, native human MET on living human cells; test: flow cytometry, A549 cells
Method in brief: as §1

[9] = biological target: T1, native human MET on living human cells; test: cell-based or functional assay; remark: listed apart in the source
[10] = biological target: T2, native mouse MET on living mouse cells; test: cell-based or functional assay; remark: listed apart in the source

B1: chimeric llama-human IgG1 mAb 71G3 (antibody, V domains shown)
VH: QVQLVESGGGLVQPGGSLRVSCAASGFTFSTYYMSWVRQAPGKGLEWVSDIRTDGGTYYADSVKGRFTMSRDNAKNTLYLQMNSLKPEDTALYYCARTRIFPSGYDYWGQGTQVTVSS
VL: QAVVTQEPSLSVSPGGTVTLTCGLSSGSVTTSNYPGWFQQTPGQAPRTLIYNTNSRHSGVPSRFSGSISGNKAALTIMGAQPEDEADYYCSLYPGSTTVFGGGTHLTVL
B1 was tested, and the “cell scattering score, HPAF-II, 0.001 nM” value [1] was 0 score 0-4, the “cell scattering score, HPAF-II, 0.004 nM” value [1] was 0 score 0-4 and the “cell scattering score, HPAF-II, 0.012 nM” value [1] was 1 score 0-4. The “cell scattering score, HPAF-II, 0.037 nM” value [1] was 2 score 0-4, the “cell scattering score, HPAF-II, 0.111 nM” value [1] was 3 score 0-4 and the “cell scattering score, HPAF-II, 0.333 nM” value [1] was 4 score 0-4. For the same binder, the “cell scattering score, HPAF-II, 1.000 nM” value [1] was 4 score 0-4, the “cell scattering score, HPAF-II, 3.000 nM” value [1] was 4 score 0-4 and the “cell scattering score, HPAF-II, 9.000 nM” value [1] was 4 score 0-4. The “cell scattering score, MLP29, 0.001 nM” value [2] was 0 score 0-4, the “cell scattering score, MLP29, 0.004 nM” value [2] was 0 score 0-4 and the “cell scattering score, MLP29, 0.012 nM” value [2] was 0 score 0-4. For the same binder, the “cell scattering score, MLP29, 0.037 nM” value [2] was 1 score 0-4, the “cell scattering score, MLP29, 0.111 nM” value [2] was 2 score 0-4 and the “cell scattering score, MLP29, 0.333 nM” value [2] was 4 score 0-4. The “cell scattering score, MLP29, 1.000 nM” value [2] was 4 score 0-4, the “cell scattering score, MLP29, 3.000 nM” value [2] was 4 score 0-4 and the “cell scattering score, MLP29, 9.000 nM” value [2] was 4 score 0-4. For the same binder, the “EMAX (% relative to control)” value [3] was 116%, the “IMAX (maximum % competition)” value [4] was 62.9% and the % binding (EMAX) compared to WT MET [5] was 100%. The % binding (EMAX) compared to WT MET [6] was 91.2%, the “IMAX (maximum % competition)” value [7] was 63.2% and the “EMAX (% relative to control)” value [8] was 117%. The “protection from staurosporine, viability EC50, MCF10A” value [9] was 5.04 nM, the “protection from staurosporine, viability EMAX, MCF10A” value [9] was 65.2% and the “protection from staurosporine, viability EC50, MLP29” value [10] was 4.85 nM. For the same binder, the “protection from staurosporine, viability EMAX, MLP29” value [10] was 62.3%.
